Reference: article PMC6269424

Columns and labels:
[1] = phospho-PPARγ western blot of adipose tissue; conditions: glycan lost; control: HFD-fed Con (OGTflox) mice
[2] = western blot of adipose tissue; conditions: glycan lost; control: HFD-fed Con (OGTflox) mice

B1: PPARγ2: adipocyte-specific OGT knockout (FKO) (protein)
parent chain: MGETLGDSPVDPEHGAFADALPMSTSQEITMVDTEMPFWPTNFGISSVDLSVMEDHSHSFDIKPFTTVDFSSISAPHYEDIPFTRADPMVADYKYDLKLQEYQSAIKVEPASPPYYSEKTQLYNRPHEEPSNSLMAIECRVCGDKASGFHYGVHACEGCKGFFRRTIRLKLIYDRCDLNCRIHKKSRNKCQYCRFQKCLAVGMSHNAIRFGRMPQAEKEKLLAEISSDIDQLNPESADLRALAKHLYDSYIKSFPLTKAKARAILTGKTTDKSPFVIYDMNSLMMGEDKIKFKHITPLQEQSKEVAIRIFQGCQFRSVEAVQEITEYAKNIPGFINLDLNDQVTLLKYGVHEIIYTMLASLMNKDGVLISEGQGFMTREFLKNLRKPFGDFMEPKFEFAVKFNALELDDSDLAIFIAVIILSGDRPGLLNVKPIEDIQDNLLQALELQLKLNHPESSQLFAKVLQKMTDLRQIVTEHVQLLHVIKKTETDMSLHPLLQEIYKDLY
In the case of B1, the “other: Ser112 phosphorylation” value [1] is reported as “increases” and the expression_or_secretion [2] is reported as “decreases”.
